Assay results as given in US12072338B2, “Pharmaceutical peptides for the treatment of inflammatory diseases” (PROTAGONISTS LTD., priority 2007, dated 2024).

What was measured:
Eotaxin 3 = target: T1, Eotaxin 3 (Homo sapiens, UniProt Q9Y258); assay: Micro-array analysis of chemokine binding peptides: Eotaxin 3; settings: limit = start of the upper 75% of that peptide's response range
T1 construct: purchased 300-48
T1 sequence (Q9Y258 24-94): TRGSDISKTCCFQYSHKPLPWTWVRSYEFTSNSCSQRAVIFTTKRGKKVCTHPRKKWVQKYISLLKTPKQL
Method: (§1) (1) Printing: Chemokine (CK) solution (in water) was serially diluted with Print Reagent (GenTel BioSurfaces USA) to final concentrations of 50 μg and 25 μg/ml. BSA/BSA-Biotin control solutions (in water) were diluted with Print Reagent to 100 μg/ml. Amplified stock of M13 phage control (M13KEgIII Cloning Vector, New England Biolabs, Cat.No.E8101S) was stored in Tris Buffered Saline (TBS; pH7.5, 4° C.) and diluted with Print Reagent to the working titre (10^8 pfu/μl). An automated spotting robot (16 pin print tool, 0.4 mm head; BioRobotics, UK) was used to print the CK/BSA control/M13 control, 5 repeats per sample (CK 25 μg/ml and 50 μg/ml; BSA 100 μg/ml; M13 20 μl), on PATH Protein Microarray Slides (GenTel, Prod.No. 2-1005/-1025) at […], and 50-70% relative humidity. Printed micro-array slides were stored at Room Temperature (RT) or 4° C. for at least 24 h before use.
(§2) (2) Blocking: Block Buffer (500 μl/partition; PATHblock, GenTel, Prod.No. 2-1014) was applied to the slide for 1 hour at room temp (RT). After removal of Block Buffer, the slide was air dried for 25 minutes;
(§3) (3) Phage Presented Peptide Binding: Amplified recombinant phage stock was stored in TBS and diluted with Wash Buffer to working titer (10^7 pfu/μl). Recombinant phage suspension (300 μl) was applied per partition and incubated at RT for 1 hour with gentle agitation.
(§4) (4) First Washing: The slides were washed twice with Wash Buffer 300 μl/partition).
(§5) (5) Primary Antibody (Ab) Labeling: The slides were incubated with the Primary Ab (1 mg/ml diluted ×2500 (Wash Reagent), 300 μl; Mouse Anti-M13 monoclonal Ab; Amersham Biosciences, UK; Product Code 27-9420-01) for 45 minutes at RT.
(§6) (6) Second Washing: The slides were washed twice with Wash Buffer (300 μl/partition).
(§7) (7) Secondary Ab Labeling: The slides were incubated with Secondary Ab (1.5 mg/ml diluted ×5000 (Wash Reagent), 300 μl; Cy3-conjugated AffiniPure Goat Anti-Mouse IgG; Jackson ImmunoReserch Labs, USA; Product Code 115-165-062).
(§8) (8) Third Washing: The slides were washed twice with Wash Buffer (300 μl/partition).
(§9) (9) Rinse: the slides were rinsed twice with Rinse Buffer (PATHrinse, GenTel, Prod.No. 2-1018) then dried well.
(§10) (10) Scanning: The peptide-bound, labeled slide was scanned (Laser Intensity 80%, Gain 80%, Resolution 10 μm) with a ScanArray Life Scanner (Packard BioChip Technologies, USA).
(§11) (11) Analysis: Quantitative analysis of micro-array was performed by the SpotReader program of Niles Scientific (USA) and presented as Relative Fluorescence (RF) as a function of CK concentration. Micro-array readout (Cy3 fluorescence) was quantified to determine the relative binding affinities of a CBP for the CKs and by inference, the specificity of the CBP for binding to a CK.

TECK = target: T2, TECK (Homo sapiens, UniProt O15444); assay: Micro-array analysis of chemokine binding peptides: TECK
T2 construct: purchased 300-45
T2 sequence (O15444 24-150): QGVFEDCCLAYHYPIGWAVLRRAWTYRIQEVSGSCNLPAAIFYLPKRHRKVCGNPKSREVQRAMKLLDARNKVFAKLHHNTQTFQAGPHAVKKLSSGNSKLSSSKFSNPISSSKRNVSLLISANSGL
Method: as §1, §2, §3, §4, §5, §6, §7, §8, §9, §10, §11

SDF1-β = target: T3, SDF1-β (Homo sapiens, UniProt P48061); assay: Micro-array analysis of chemokine binding peptides: SDF1-β
T3 construct: purchased 300-28b
Method: as §1, §2, §3, §4, §5, §6, §7, §8, §9, §10, §11

SDF1-α = target: T4, SDF1-α (Homo sapiens, UniProt P48061); assay: Micro-array analysis of chemokine binding peptides: SDF1-α
T4 construct: purchased 300-28a
Method: as §1, §2, §3, §4, §5, §6, §7, §8, §9, §10, §11

MCP-4 = target: T5, MCP-4 (Homo sapiens, UniProt Q99616); assay: Micro-array analysis of chemokine binding peptides: MCP-4; settings: limit = start of the upper 75% of that peptide's response range
T5 construct: purchased 300-24
Method: as §1, §2, §3, §4, §5, §6, §7, §8, §9, §10, §11

Mig = target: T6, Mig (Homo sapiens, UniProt Q07325); assay: Micro-array analysis of chemokine binding peptides: Mig; settings: limit = start of the upper 75% of that peptide's response range
T6 construct: purchased 300-26
T6 sequence (Q07325 23-125): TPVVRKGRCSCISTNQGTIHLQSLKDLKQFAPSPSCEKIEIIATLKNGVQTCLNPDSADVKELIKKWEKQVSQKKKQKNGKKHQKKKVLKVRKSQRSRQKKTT
Method: as §1, §2, §3, §4, §5, §6, §7, §8, §9, §10, §11

MCP-2 = target: T7, MCP-2 (Homo sapiens, UniProt P80075); assay: Micro-array analysis of chemokine binding peptides: MCP-2; settings: limit = start of the upper 75% of that peptide's response range
T7 construct: purchased 300-15
T7 sequence (P80075 24-99): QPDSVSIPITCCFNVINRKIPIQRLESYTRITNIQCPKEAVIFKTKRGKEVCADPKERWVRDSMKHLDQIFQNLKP
Method: as §1, §2, §3, §4, §5, §6, §7, §8, §9, §10, §11

Lymphotactin = target: T8, Lymphotactin (Homo sapiens, UniProt P47992); assay: Micro-array analysis of chemokine binding peptides: Lymphotactin
T8 construct: purchased 300-20
T8 sequence (P47992 22-114): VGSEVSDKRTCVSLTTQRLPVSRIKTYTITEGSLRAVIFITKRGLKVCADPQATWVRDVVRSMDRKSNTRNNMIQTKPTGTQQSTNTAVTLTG
Method: as §1, §2, §3, §4, §5, §6, §7, §8, §9, §10, §11

Fractalkine = target: T9, Fractalkine (Homo sapiens, UniProt P78423); assay: Micro-array analysis of chemokine binding peptides: Fractalkine
T9 construct: purchased 300-31
T9 sequence (P78423 25-100 limits assumed): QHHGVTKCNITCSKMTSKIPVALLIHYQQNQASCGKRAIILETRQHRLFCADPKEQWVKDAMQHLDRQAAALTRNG
Method: as §1, §2, §3, §4, §5, §6, §7, §8, §9, §10, §11

RANTES = target: T10, RANTES (Homo sapiens, UniProt P13501); assay: Micro-array analysis of chemokine binding peptides: RANTES; settings: limit = start of the upper 75% of that peptide's response range
T10 construct: purchased 300-06
T10 sequence (P13501 24-91): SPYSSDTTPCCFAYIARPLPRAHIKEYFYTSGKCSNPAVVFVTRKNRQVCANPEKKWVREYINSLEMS
Method: as §1, §2, §3, §4, §5, §6, §7, §8, §9, §10, §11

Exodus-2 = target: T11, Exodus-2 (Homo sapiens, UniProt O00585); assay: Micro-array analysis of chemokine binding peptides: Exodus-2
T11 construct: purchased 300-35
T11 sequence (O00585 24-134): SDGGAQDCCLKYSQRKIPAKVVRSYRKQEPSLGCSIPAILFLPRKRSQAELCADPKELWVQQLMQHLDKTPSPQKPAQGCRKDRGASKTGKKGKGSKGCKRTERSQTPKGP
Method: as §1, §2, §3, §4, §5, §6, §7, §8, §9, §10, §11

BCA-1 = target: T12, BCA-1 (Homo sapiens, UniProt O43927); assay: Micro-array analysis of chemokine binding peptides: BCA-1
T12 construct: purchased 300-47
T12 sequence (O43927 23-109): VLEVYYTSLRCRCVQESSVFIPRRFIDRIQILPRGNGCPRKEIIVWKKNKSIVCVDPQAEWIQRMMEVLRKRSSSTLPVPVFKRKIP
Method: as §1, §2, §3, §4, §5, §6, §7, §8, §9, §10, §11

GRO-β = target: T13, GRO-β (Homo sapiens, UniProt P19875); assay: Micro-array analysis of chemokine binding peptides: GRO-β; settings: limit = start of the upper 75% of that peptide's response range
T13 construct: purchased 300-39
T13 sequence (P19875 35-107): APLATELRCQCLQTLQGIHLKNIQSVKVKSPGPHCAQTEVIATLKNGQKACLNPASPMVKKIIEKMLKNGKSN
Method: as §1, §2, §3, §4, §5, §6, §7, §8, §9, §10, §11

IL-8 = assay: Micro-array analysis of chemokine binding peptides: IL-8; settings: limit = start of the upper 75% of that peptide's response range
Method: as §1, §2, §3, §4, §5, §6, §7, §8, §9, §10, §11

Eotaxin = target: T14, Eotaxin (Homo sapiens, UniProt P51671); assay: Micro-array analysis of chemokine binding peptides: Eotaxin; settings: limit = start of the upper 75% of that peptide's response range
T14 construct: purchased 300-21
Method: as §1, §2, §3, §4, §5, §6, §7, §8, §9, §10, §11

Eotaxin 2 = target: T15, Eotaxin 2 (Homo sapiens, UniProt O00175); assay: Micro-array analysis of chemokine binding peptides: Eotaxin 2; settings: limit = start of the upper 75% of that peptide's response range
T15 construct: purchased 300-33
T15 sequence (O00175 27-119): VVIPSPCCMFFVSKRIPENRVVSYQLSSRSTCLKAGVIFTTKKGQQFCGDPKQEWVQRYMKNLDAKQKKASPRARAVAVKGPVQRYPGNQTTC
Method: as §1, §2, §3, §4, §5, §6, §7, §8, §9, §10, §11

I-TAC = target: T16, I-TAC (Homo sapiens, UniProt O14625); assay: Micro-array analysis of chemokine binding peptides: I-TAC; settings: limit = start of the upper 75% of that peptide's response range
T16 construct: purchased 300-46
T16 sequence (O14625 22-94): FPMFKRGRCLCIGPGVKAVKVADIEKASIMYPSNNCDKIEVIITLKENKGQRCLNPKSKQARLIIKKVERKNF
Method: as §1, §2, §3, §4, §5, §6, §7, §8, §9, §10, §11

I-309 = target: T17, I-309 (Homo sapiens, UniProt P22362); assay: Micro-array analysis of chemokine binding peptides: I-309; settings: limit = start of the upper 75% of that peptide's response range
T17 construct: purchased 300-37
T17 sequence (P22362 24-96): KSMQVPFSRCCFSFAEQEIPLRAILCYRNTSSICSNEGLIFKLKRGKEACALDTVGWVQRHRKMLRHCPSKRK
Method: as §1, §2, §3, §4, §5, §6, §7, §8, §9, §10, §11

T4 sequence (P48061 22-89 limits assumed): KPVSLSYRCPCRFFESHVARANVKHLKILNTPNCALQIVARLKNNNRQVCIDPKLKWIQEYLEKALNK
T14 sequence (P51671 24-97): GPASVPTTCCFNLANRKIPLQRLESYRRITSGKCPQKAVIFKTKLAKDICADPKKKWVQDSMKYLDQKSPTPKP
T5 sequence (Q99616 17-98): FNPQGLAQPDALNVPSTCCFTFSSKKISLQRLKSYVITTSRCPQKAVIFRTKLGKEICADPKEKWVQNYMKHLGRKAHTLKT
T3 sequence (P48061 22-93): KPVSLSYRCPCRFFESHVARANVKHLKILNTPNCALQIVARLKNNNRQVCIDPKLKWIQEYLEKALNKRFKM
Chain of IL-8 (P10145 28-99 limits assumed): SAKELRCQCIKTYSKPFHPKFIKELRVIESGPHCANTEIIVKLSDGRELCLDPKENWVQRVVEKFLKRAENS

DYDY (listed as Homo sapiens) [Ph-p32]
binding to Eotaxin 3 with relatively high affinity (Relative Fluorescence Units) (Eotaxin 3): > 10,000 RFU | binding to TECK, stated in words (TECK): bound | binding to SDF1-β, stated in words (SDF1-β): bound | binding to SDF1-α, stated in words (SDF1-α): bound | binding to MCP-4 with relatively high affinity (Relative Fluorescence Units) (MCP-4): > 10,000 RFU | binding to Mig with relatively high affinity (Relative Fluorescence Units) (Mig): > 10,000 RFU | binding to MCP-2 with relatively high affinity (Relative Fluorescence Units) (MCP-2): > 10,000 RFU | binding to Lymphotactin, stated in words (Lymphotactin): bound | binding to Fractalkine, stated in words (Fractalkine): bound | binding to RANTES with relatively high affinity (Relative Fluorescence Units) (RANTES): > 10,000 RFU | binding to Exodus-2, stated in words (Exodus-2): bound | binding to BCA-1, stated in words (BCA-1): bound | binding to GRO-β with relatively high affinity (Relative Fluorescence Units) (GRO-β): > 10,000 RFU | binding to IL-8 with relatively high affinity (Relative Fluorescence Units) (IL-8): > 10,000 RFU | binding to Eotaxin with relatively high affinity (Relative Fluorescence Units) (Eotaxin): > 10,000 RFU | binding to Eotaxin 2 with relatively high affinity (Relative Fluorescence Units) (Eotaxin 2): > 10,000 RFU | binding to I-TAC with relatively high affinity (Relative Fluorescence Units) (I-TAC): > 10,000 RFU | binding to I-309 with relatively high affinity (Relative Fluorescence Units) (I-309): > 10,000 RFU
